Biological target: T1, S35 methionine radiolabelled BLM (in vitro translated) (UniProt P54132 1-1417, limits assumed, S35 methionine radiolabel)
T1 construct: also called in vitro translated BLM; radioactive BLM
Assay: in vitro interaction of S35 methionine radiolabelled BLM with bound GST SMAD3, autoradiography
Procedure: H. BLM directly interacted with SMAD3 and HDAC1. (Top) In vitro interactions were carried out with S35 methionine radiolabelled BLM and bound (left) GST and GST SMAD3, (right) GST and GST HDAC1. Post-interaction the bound radioactive BLM was detected by autoradiography. (Bottom) Inputs used for in vitro translated BLM (detected by autoradiography) and GST, GST SMAD3, GST HDAC1 (detected by Coomassie). The

T1 sequence (P54132 whole entry): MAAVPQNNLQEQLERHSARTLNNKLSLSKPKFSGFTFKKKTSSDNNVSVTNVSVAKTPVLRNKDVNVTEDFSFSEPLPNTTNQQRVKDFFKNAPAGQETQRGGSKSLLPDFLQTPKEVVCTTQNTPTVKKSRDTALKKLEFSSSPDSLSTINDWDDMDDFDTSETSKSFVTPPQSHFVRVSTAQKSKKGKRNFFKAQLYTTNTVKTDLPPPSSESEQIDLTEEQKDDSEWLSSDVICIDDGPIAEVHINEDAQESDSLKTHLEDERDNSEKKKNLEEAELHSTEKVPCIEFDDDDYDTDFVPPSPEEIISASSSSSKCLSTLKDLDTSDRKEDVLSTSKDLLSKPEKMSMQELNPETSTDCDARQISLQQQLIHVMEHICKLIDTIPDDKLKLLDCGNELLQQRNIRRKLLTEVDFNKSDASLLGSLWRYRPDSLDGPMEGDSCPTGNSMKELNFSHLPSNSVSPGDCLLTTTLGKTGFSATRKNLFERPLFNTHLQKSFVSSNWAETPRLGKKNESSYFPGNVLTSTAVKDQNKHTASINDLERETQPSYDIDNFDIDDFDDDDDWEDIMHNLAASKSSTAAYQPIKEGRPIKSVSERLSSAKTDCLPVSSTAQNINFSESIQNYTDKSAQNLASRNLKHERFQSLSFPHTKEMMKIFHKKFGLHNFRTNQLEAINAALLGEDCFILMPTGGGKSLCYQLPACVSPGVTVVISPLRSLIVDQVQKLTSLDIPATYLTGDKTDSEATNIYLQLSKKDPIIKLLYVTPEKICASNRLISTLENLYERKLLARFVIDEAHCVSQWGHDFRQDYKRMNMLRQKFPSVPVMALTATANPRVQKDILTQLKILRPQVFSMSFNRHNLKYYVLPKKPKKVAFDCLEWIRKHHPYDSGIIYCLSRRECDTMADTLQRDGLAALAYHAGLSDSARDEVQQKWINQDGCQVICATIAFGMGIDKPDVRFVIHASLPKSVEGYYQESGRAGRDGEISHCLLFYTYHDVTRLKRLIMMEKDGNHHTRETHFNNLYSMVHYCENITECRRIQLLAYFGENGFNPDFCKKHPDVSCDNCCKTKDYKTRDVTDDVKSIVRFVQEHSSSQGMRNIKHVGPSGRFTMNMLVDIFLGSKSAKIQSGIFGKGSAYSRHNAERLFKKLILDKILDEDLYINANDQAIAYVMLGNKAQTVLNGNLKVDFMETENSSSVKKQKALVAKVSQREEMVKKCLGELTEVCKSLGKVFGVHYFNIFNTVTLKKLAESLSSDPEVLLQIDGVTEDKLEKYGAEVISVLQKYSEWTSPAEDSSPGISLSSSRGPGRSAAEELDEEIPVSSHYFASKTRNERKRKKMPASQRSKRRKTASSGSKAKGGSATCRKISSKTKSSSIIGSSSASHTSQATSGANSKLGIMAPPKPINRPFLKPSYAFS

B1: GST SMAD3 (WT) (other, UniProt P84022 1-425, looked up)
chain: MSSILPFTPPIVKRLLGWKKGEQNGQEEKWCEKAVKSLVKKLKKTGQLDELEKAITTQNVNTKCITIPRSLDGRLQVSHRKGLPHVIYCRLWRWPDLHSHHELRAMELCEFAFNMKKDEVCVNPYHYQRVETPVLPPVLVPRHTEIPAEFPPLDDYSHSIPENTNFPAGIEPQSNIPETPPPGYLSEDGETSDHQMNHSMDAGSPNLSPNPMSPAHNNLDLQPVTYCEPAFWCSISYYELNQRVGETFHASQPSMTVDGFTDPSNSERFCLGLLSNVNRNAAVELTRRHIGRGVRLYYIGGEVFAECLSDSAIFVQSPNCNQRYGWHPATVCKIPPGCNLKIFNNQEFAALLAQSVNQGFEAVYQLTRMCTIRMSFVKGWGAEYRRQTVTSTPCWIELHLNGPLQWLDKVLTQMGSPSIRCSSVS
notes: also called pGEX6-SMAD3 WT; not shown: Glutathione S-transferase tag of the pGEX6 vector
- binding result: binds
